Measurements as given in publication PMC4705688.

Assays:
[1] = target: His-Cmr (Mycobacterium tuberculosis H37Rv) (UniProt P9WMH5); assay: EMSA
[2] = target: His-Cmr HTH+ del217-244 (Mycobacterium tuberculosis H37Rv) (UniProt P9WMH5); assay: EMSA
[3] = target: His-Cmr HTH- del195-244 (Mycobacterium tuberculosis H37Rv) (UniProt P9WMH5); assay: EMSA
[4] = target: His-Cmr (Mycobacterium tuberculosis H37Rv) (UniProt P9WMH5); assay: DNase I footprinting

Chain of His-Cmr HTH- del195-244 (Mycobacterium tuberculosis H37Rv) (P9WMH5 1-194): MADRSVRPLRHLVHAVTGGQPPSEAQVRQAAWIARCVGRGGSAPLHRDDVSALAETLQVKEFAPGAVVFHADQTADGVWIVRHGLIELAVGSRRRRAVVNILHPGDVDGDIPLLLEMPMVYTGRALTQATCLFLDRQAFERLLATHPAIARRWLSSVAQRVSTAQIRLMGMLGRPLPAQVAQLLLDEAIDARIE
Chain of His-Cmr HTH+ del217-244 (Mycobacterium tuberculosis H37Rv) (P9WMH5 1-216): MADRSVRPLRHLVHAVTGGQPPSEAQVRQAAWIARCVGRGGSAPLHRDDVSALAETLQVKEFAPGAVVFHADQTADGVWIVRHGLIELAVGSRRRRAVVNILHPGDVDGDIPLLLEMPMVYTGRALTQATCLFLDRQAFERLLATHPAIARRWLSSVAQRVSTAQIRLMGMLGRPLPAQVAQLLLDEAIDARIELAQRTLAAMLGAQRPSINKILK
Chain of His-Cmr (Mycobacterium tuberculosis H37Rv) (P9WMH5 whole entry): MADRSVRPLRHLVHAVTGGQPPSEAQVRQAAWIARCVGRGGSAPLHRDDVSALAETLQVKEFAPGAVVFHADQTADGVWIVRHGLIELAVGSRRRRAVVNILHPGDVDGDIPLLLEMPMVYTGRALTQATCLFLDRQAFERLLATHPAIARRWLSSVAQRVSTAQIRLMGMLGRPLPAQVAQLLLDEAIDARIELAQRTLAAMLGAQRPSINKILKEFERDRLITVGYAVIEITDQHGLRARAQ

With “ATCTCAACTATGTGGCCTTGTCCTTAGTCACCGCCGACGGACACACCCTGCTGCACCACCCGTATACCCAGAGCGAGGTGGACATCAAGAAGAACGTGTTCACGATGATGATGCGGCTACCGTGGTTGTATCGCGTTCCCGTACATACGATTCACAAATTTGGCCACATGCTCAGCGGCATGGCGATCCGGATCGTC (double strand) [2G5 full]” the binding [1] was “binds”, the binding [2] was “binds” and the binding [3] was “no binding”.
With “TAAAGTCACCGCCGGGGCCGATGTTCGCAGTCGCGGGCTCGGTGCCATCCATATCGTTGCGCAGCGCGATGCCGTGCCAATGCACCGACGTCGGATCACCCAGACGGTTGGTCACCGAGACGACAATCTCATCCCCGACGGTGGCCCGGATCAGTGGTCCGGGGATGGTGTTGCCGTAGGTCAGCGTGCTGACGATCGGCCCACCCAGGTCGATCCTCGCCGGCTGGGGGGTCAGCGTGGCGGTAACCGTTCGCCCACTGTGCGGCCGGGCCGCCTCGGCCGCGTCGATTGCAGCGGT (double strand) [Rv0846c]” the binding [1] was “binds”.
With “CGGACTGCTGCTGCTCGCCGTTGTCTCCGGTGATTGGGTTGCCCATACCTCCTGGGGCGCAGCGTGGTTCAGCTTGTCACCGGTGACACTGTGTTGGCTTCTCATCAGCTATGGCTTCGCAGCTTCGGTGCTGCCGGTGTGGCTGCTGCTCGCGCCACGCGACTACCTGTCAACGTTCATGAAGG (double strand) [1C1 full]” the binding [4] was “binds”, the binding [1] was “binds” and the binding [2] was “binds”. For the same sequence, the binding [3] was “no binding”.
“TCTATGGCGGCCAGGGACGCACATTGTGGGCTTCGGGGTAATTGTCTTGGGTTGGCTGCCCCGCGCTGCACAGGGTTACTGGCCCAGGAGGCGGACGTCATCGTGTTAACACCCGTCGGGATAACCTGGGAGCGGCGCAGCCAAGGAAGGAACCAACCGTCCGGTGTCAGACCTAGCCAGAACCGACGTCGTGCTGATC (double strand) [2C5 full]” was tested, and the binding [1] was “binds”, the binding [2] was “binds” and the binding [3] was “no binding”.
